Measurements as given in patent US20110256153A1 (IMMUNOGEN, published 2011).

Tests used:
[1] = biological target: T1, hCD37-M45 (human/murine chimera, UniProt P11049 1-281); experiment: flow cytometry, 300-19 cells expressing hCD37-M45
T1 construct: stably expressed on 300-19 cells; also called hCD37-M45 variant
T1 chain: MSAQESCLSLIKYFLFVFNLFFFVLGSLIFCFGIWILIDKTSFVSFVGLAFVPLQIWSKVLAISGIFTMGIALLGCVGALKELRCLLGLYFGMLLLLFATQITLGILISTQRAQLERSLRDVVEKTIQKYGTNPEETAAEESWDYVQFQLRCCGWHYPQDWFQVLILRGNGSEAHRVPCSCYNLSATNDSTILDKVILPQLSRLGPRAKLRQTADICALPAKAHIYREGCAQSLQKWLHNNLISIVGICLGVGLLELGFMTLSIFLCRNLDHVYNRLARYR
Protocol: (§1) Binding specificity was tested by flow cytometry using purified antibodies. […] All murine antibodies were incubated for 3 h with either CD37-expressing 300-19 cells or the non-transfected 300-19 cells (1×10⁵ cells per sample) in 100 μL FACS buffer (RPMI-1640 medium supplemented with 2% normal goat serum). Then, the cells were pelleted, washed, and incubated for 1 h with 100 μL of FITC-conjugated goat anti-mouse IgG-antibody (Jackson Laboratory, 6 μg/mL in FACS buffer). The cells were pelleted again, washed with FACS buffer and resuspended in 200 μL of PBS containing 1% formaldehyde. Samples were acquired using a FACSCalibur flow cytometer with the HTS multiwell sampler or a FACS array flow cytometer and analyzed using CellQuest Pro (all from BD Biosciences, San Diego, US).
Binding of various CD37 antibodies to cells expressing human CD37 wildtype and variants was analyzed by flow cytometry using 1.5 μg/mL of each antibody. The isolated antibodies of this invention were compared to commercially available CD37 antibody WR17, as well as the TRU-016 SMIP. […] Likewise, all antibodies tested bound the hCD37-M3 variant (FIG. 18B). In contrast, the isolated antibodies of this invention bound the hCD37-M1 variant, while TRU-016 and WR17 were unable to bind hCD37-M1 variant (FIG. 19A). The CD37-50 and CD37-51 antibodies and TRU-016 were also able to bind the hCD37-M45 variant. […] In contrast, the CD37-3, CD37-12, CD37-38, CD37-56 and CD37-57 antibodies require at least one of the AA residues in the hCD37-M45 variant that were changed to the corresponding murine AA residues for binding to the CD37 antigen.

[2] = biological target: T2, hCD37-M1 (human/murine chimera, UniProt P11049 1-281); experiment: flow cytometry, 300-19 cells expressing hCD37-M1, 1.5 µg/mL antibody
T2 construct: stably expressed on 300-19 cells; also called hCD37-M1 variant
T2 chain: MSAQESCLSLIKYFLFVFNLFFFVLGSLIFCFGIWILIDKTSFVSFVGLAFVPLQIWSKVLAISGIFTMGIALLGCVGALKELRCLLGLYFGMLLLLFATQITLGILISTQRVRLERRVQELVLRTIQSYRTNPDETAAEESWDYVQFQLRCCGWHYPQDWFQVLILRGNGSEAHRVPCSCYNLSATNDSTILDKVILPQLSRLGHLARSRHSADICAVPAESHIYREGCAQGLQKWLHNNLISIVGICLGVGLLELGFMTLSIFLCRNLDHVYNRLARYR
How it was run: (§2)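 300-19 cells transfected with human CD37 wildtype or variants (non-transfected as control), 1×10⁵ per sample, incubated 3 h with purified murine antibodies (1.5 μg/mL for variant comparison) in RPMI-1640 with 2% goat serum. Bound antibody detected with FITC goat anti-mouse IgG (1 h), formaldehyde-fixed, analysed by flow cytometry.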

[3] = biological target: T3, hCD37-M3 (human/murine chimera, UniProt P11049 1-281); experiment: flow cytometry, 300-19 cells expressing hCD37-M3, 1.5 µg/mL antibody
T3 construct: stably expressed on 300-19 cells; also called hCD37-M3 variant
T3 chain: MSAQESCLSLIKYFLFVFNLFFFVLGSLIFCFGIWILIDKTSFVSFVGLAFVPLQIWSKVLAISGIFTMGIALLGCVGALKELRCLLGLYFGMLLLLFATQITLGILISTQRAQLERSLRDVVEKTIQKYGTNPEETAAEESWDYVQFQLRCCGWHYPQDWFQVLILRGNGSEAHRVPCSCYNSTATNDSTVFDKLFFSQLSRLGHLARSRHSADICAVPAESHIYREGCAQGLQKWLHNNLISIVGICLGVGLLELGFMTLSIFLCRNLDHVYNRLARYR
How it was run: as §2

[4] = biological target: T4, human CD37 (human, UniProt P11049 1-278); experiment: flow cytometry titration on WSU-DLCL-2 cells; EC50 taken as apparent Kd
T4 construct: Tetraspanin antigen; Expressed on 300-19 cells transfected with pSRa-CD37 (entire CDS) or endogenous on WSU-DLCL-2, BJAB and Ramos lymphoma cells; also called CD37 antigen; human CD37 wildtype
T4 sequence: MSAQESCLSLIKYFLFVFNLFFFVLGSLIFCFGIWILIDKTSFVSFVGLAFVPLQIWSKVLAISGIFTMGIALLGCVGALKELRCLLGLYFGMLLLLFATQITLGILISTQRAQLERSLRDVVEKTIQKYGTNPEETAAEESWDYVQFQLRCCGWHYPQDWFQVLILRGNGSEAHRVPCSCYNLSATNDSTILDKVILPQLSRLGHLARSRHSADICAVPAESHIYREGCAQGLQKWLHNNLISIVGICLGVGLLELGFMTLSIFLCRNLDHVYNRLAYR
Protocol: as §1
To verify that the antibodies can also bind to endogenously expressed CD37, binding experiments were performed with CD37-positive WSU-DLCL-2 lymphoma cells and the muCD37-3, muCD37-12, muCD37-8, muCD37-10 or muCD37-14 antibodies. WSU-DLCL-2 cells were incubated with varying concentrations of murine antibodies and processed as described above for flow cytometry analysis. Data analysis was performed using CellQuest Pro (BD Biosciences, San Diego, US) and for each sample the mean fluorescence intensity for FL1 (MFI) was exported and plotted against the antibody concentration in a semi-log plot (FIG. 3). […]

binding result [1]: no binding (tested: 1.5 µg/mL)
binding result [2]: binds
binding result [3]: binds
Kd [4]: 0.52 nM
B1: muCD37-3 (antibody, mouse IgG2a, kappa)
heavy: QVQVKESGPGLVAPSQSLSITCTVSGFSLTTSGVSWVRQPPGKGLEWLGVIWGDGSTNYHSALKSRLSIKKDHSKSQVFLKLNSLQTDDTATYYCAKGGYSLAHWGQGTLVTVSAAKTTAPSVYPLAPVCGDTTGSSVTLGCLVKGYFPEPVTLTWNSGSLSSGVHTFPAVLQSDLYTLSSSVTVTSSTWPSQSITCNVAHPASSTKVDKKIEPRGPTIKPCPPCKCPAPNLLGGPSVFIFPPKIKDVLMISLSPIVTCVVVDVSEDDPDVQISWFVNNVEVHTAQTQTHREDYNSTLRVVSALPIQHQDWMSGKEFKCKVNNKDLPAPIERTISKPKGSVRAPQVYVLPPPEEEMTKKQVTLTCMVTDFMPEDIYVEWTNNGKTELNYKNTEPVLDSDGSYFMYSKLRVEKKNWVERNSYSCSVVHEGLHNHHTTKSFSRTPGK
light: DIQMTQSPASLSVSVGETVTITCRASENIRSNLAWYQQKQGKSPQLLVNVATNLADGVPSRFSGSGSGTQYSLKINSLQSEDFGTYYCQHYWGTTWTFGGGTKLEIKRADAAPTVSIFPPSSEQLTSGGASVVCFLNNFYPKDINVKWKIDGSERQNGVLNSWTDQDSKDSTYSMSSTLTLTKDEYERHNSYTCEATHKTSTSPIVKSFNRNEC
notes: Murine hybridoma antibody; also called murine CD37-3 antibody; muCD37-3-PE
